Experimental findings from patent publication US20220363763A1 are described below.

The target of assay [1] is human LAG3 on cells (human) (UniProt P18627). As to the kind of experiment: flow cytometry (MFI) on Jurkat-LAG3 cells, upper panel; EC50 table has no unit, x axis Concentration (nM); fit value of a flat control curve. Background: In flow cytometry, cells or beads pass a laser one at a time.
For assay [2] the target is unchanged. Kind of assay: flow cytometry (MFI) on activated CD4 T cells, lower panel; EC50 table has no unit, x axis Concentration (nM); fit value of a flat control curve.
Assay [3] concerns the target human PD-L1 expressed on mammalian cells (human) (UniProt Q9NZQ7). Kind of assay: cell-based binding on Raji-PDL1 cells (FACS by paragraph 328; the y axis of the sheet is labelled IL2 (ng/ml)); EC50 table has no unit, x axis Concentration (nM).
Assay [4] addresses human PD-L1-Fc protein (human) (UniProt Q9NZQ7). As to the kind of experiment: ELISA on coated human PD-L1-Fc; EC50 table has no unit, x axis Ab(nM); fit value of a flat control curve. (In an ELISA, binding on a coated surface is turned into a signal by an enzyme label.)

human LAG3 on cells (human), sequence (P18627 23-525): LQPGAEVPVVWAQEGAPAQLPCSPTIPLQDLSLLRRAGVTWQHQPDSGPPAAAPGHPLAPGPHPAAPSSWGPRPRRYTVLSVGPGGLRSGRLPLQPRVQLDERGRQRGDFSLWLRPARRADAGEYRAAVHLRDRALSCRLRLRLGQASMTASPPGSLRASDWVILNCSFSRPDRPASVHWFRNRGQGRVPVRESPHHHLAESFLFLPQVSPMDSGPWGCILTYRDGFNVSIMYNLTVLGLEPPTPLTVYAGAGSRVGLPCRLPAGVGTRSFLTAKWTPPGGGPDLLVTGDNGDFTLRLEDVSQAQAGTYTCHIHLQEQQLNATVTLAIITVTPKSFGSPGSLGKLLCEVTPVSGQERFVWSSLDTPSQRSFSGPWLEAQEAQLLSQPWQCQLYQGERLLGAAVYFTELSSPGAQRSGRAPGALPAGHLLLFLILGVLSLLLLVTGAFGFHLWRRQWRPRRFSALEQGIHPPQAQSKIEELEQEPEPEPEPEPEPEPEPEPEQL
human PD-L1 expressed on mammalian cells (human), sequence (Q9NZQ7 19-290): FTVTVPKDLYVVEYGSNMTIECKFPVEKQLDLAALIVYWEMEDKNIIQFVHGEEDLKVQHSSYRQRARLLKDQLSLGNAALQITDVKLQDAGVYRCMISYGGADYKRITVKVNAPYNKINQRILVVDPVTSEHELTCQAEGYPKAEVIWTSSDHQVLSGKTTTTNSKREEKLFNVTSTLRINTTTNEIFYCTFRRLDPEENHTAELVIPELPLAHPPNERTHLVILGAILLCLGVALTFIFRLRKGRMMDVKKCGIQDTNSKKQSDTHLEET
human PD-L1-Fc protein (human), sequence (Q9NZQ7 19-239 limits assumed): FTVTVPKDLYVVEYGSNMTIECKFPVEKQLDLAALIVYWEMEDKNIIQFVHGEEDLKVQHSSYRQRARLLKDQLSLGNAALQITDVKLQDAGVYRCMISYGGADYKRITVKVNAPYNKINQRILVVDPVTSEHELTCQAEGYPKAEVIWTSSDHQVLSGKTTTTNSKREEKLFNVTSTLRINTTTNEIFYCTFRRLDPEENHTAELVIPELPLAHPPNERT

With IgG (antibody), the figures for the EC50 in assay [1] and in assay [2] were 0.000463 µM and 3590 µM, respectively.

For Tecentriq (antibody), the EC50 (usually the concentration at which the effect is half-maximal) in assay [3] came out at 0.000891 µM.

Regarding hIgG (antibody), the EC50 in assay [4] was found to be 0.0848 µM.
